Measured values from article PMC6938348 (PLoS ONE, 2019).

What was measured:
[1] = target: T1, Her2 on cells (SKOV3, JIMT-1, MCF7) (Homo sapiens (endogenous in SKOV3, …, UniProt P04626)); assay: flow cytometry on cells; saturation binding of full-size antibodies on live low-Her2 MCF7 cells, 4°C 2 h, 0 to 200 nM or 1 μM, washed, anti-human Fc AlexaFluor488-(Fab')2 detection; apparent KD; conditions: one partner purified
T1 construct: Her2 as it stands on the surface of live SKOV3 (high), JIMT-1 (low) and MCF7 (very low) cells; also called Her2 receptors; source: endogenous, on SKOV3, JIMT-1 and MCF7 cells

[2] = target: T1, Her2 on cells (SKOV3, JIMT-1, MCF7); assay: flow cytometry on cells; saturation binding of full-size antibodies on live high-Her2 SKOV3 cells, 4°C 2 h, 0 to 200 nM or 1 μM, washed, anti-human Fc AlexaFluor488-(Fab')2 detection; apparent KD; conditions: one partner purified
[3] = target: T1, Her2 on cells (SKOV3, JIMT-1, MCF7); assay: cell-based or functional assay
[4] = target: T2, soluble Her2 ectodomain (Homo sapiens (assumed; species and …, UniProt P04626); assay: SPR; antibody captured on an anti-hFc CM-5 surface, soluble Her2 ectodomain flowed (monovalent binding); single cycle kinetics in duplicate, 25°C, PBS with 3.4 mM EDTA and 0.05% Tween 20; 1:1 binding model; Biacore T200; conditions: both partners purified
T2 construct: Her2 ectodomain, soluble

[5] = target: T2, soluble Her2 ectodomain; assay: as above; conditions: both partners purified; remark: listed apart in the source
[6] = target: T1, Her2 on cells (SKOV3, JIMT-1, MCF7); assay: cell-based or functional assay; remark: listed apart in the source

Kd [1]: 0.87 nM
Kd [2]: 2.41 nM
koff [4]: 0.000741 s⁻¹
kon [4]: 100000 M⁻¹ s⁻¹
Kd [5]: 14.7 nM
B1: bH1 full-size antibody (Parent 2) (antibody, V domains shown)
VH: not shown
VL: DIQMTQSPSSLSASVGDRVTITCRASQDIPRSISGYVAWYQQKPGKAPKLLIYWGSYLYSGVPSRFSGSGSGTDFTLTISSLQPEDFATYYCQQHYTTPPTFGQGTKVEIK
notes: heavy chain of bH1 (Parent 2) as full-size human IgG; light chain of bH1 (Parent 2), a Herceptin variant with a 4-residue insertion in CDR-L1 and a few point mutations; FSA; IgG1 is surmised (Synagis is called the IgG1 isotype control); also called 2–13; source: CHO-3E7, co-transfected, purified (MabSelect Sure); copies: 2 + 2
IC50 of cytotoxicity, antibody directly conjugated to DM1, SKOV3 cells [3]: 0.075 nM
IC50 of cytotoxicity, antibody directly conjugated to PNU, JIMT1 cells [3]: 0.5 nM
IC50 of cytotoxicity, antibody directly conjugated to PNU, MCF7 cells [3]: 2.02 nM
IC50 of cytotoxicity, antibody directly conjugated to PNU, SKOV3 cells [3]: 0.077 nM
IC50 of cytotoxicity, indirect ADC screen (DM1-conjugated secondary antibody), JIMT1 cells [6]: 7.4 nM
IC50 of cytotoxicity, indirect ADC screen (DM1-conjugated secondary antibody), MCF7 cells [6]: 8.2 nM
IC50 of cytotoxicity, indirect ADC screen (DM1-conjugated secondary antibody), SKOV3 cells [6]: 0.021 nM
IC50 of cytotoxicity, indirect ADC screen (MMAE-conjugated secondary antibody), JIMT1 cells [6]: 10.3 nM
IC50 of cytotoxicity, indirect ADC screen (MMAE-conjugated secondary antibody), MCF7 cells [6]: 35.6 nM
IC50 of cytotoxicity, indirect ADC screen (MMAE-conjugated secondary antibody), SKOV3 cells [6]: 0.078 nM
